In this data set the test system is T1, PsdR-His (Pseudomonas aeruginosa PAO1?), ORF:604e189e.
T1 sequence: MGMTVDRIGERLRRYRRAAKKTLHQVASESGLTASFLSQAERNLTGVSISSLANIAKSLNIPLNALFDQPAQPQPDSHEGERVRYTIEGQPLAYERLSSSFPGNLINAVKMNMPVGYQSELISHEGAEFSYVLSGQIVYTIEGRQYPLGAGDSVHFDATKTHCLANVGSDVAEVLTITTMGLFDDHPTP
Description: EMSA. Particulars: 10 mM Tris-HCl pH 7.5, 50 mM KCl, 1 mM DTT, 1% glycerin, 10 mM MgCl2, 1 ug/ul poly(dI-dC), 25 C, 30 min; 6.5% polyacrylamide gel. In general terms: Mobility shift assays separate free from complexed probe on a gel.

For “CGGGTATCGTACTAGGTGCATCAAACGCTGCGGTCTATTGTTAAGTGGGACTGAAATGTGCCTTTCCGGCACAACGCCAACTCTATAGA (double strand) [PlasR-WT]”, the binding result is recorded as “binds”.

Values taken from PMC10965056.
